Measurements taken from IntAct's records for PubMed 11742986.

B1: 26S proteasome regulatory subunit 8 homolog (Saccharomyces cerevisiae), Q01939 (parent)
chain: MTAAVTSSNIVLETHESGIKPYFEQKIQETELKIRSKTENVRRLEAQRNALNDKVRFIKDELRLLQEPGSYVGEVIKIVSDKKVLVKVQPEGKYIVDVAKDINVKDLKASQRVCLRSDSYMLHKVLENKADPLVSLMMVEKVPDSTYDMVGGLTKQIKEIKEVIELPVKHPELFESLGIAQPKGVILYGPPGTGKTLLARAVAHHTDCKFIRVSGAELVQKYIGEGSRMVRELFVMAREHAPSIIFMDEIDSIGSTRVEGSGGGDSEVQRTMLELLNQLDGFETSKNIKIIMATNRLDILDPALLRPGRIDRKIEFPPPSVAARAEILRIHSRKMNLTRGINLRKVAEKMNGCSGADVKGVCTEAGMYALRERRIHVTQEDFELAVGKVMNKNQETAISVAKLFK
partner: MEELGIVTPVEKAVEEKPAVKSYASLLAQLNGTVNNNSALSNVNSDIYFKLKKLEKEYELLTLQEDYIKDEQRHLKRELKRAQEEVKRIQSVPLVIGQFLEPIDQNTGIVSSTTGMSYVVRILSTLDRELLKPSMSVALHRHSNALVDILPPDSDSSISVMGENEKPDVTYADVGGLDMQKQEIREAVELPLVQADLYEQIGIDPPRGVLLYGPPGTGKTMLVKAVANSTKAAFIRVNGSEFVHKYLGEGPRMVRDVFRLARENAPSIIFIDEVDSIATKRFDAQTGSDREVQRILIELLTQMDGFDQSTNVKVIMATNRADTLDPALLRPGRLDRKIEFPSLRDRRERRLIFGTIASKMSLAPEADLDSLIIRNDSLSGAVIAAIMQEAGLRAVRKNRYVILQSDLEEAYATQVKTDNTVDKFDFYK

Variants of: B1
Settings: with prs6b_yeast RPT3, P33298

Variant	effect of a mutation on the interaction
K195S	decreasing interaction
K195R	decreasing interaction
